Series [1] has as its target Third plant homeodomain (PHD3) finger of MLL, residues 1565-1627 (human) (UniProt Q03164). In words: ITC. (Isothermal titration calorimetry measures the heat released or taken up as one component is titrated into another.)
In a further series the target is Cyp33 RRM domain (human, UniProt Q9UNP9 1-90). Briefly: NMR.

Here are results for 4 molecules from PMC3204800.

Sequence of Third plant homeodomain (PHD3) finger of MLL, residues 1565-1627 (human) (Q03164 1565-1627): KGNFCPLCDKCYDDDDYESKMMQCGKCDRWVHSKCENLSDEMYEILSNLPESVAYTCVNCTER
Sequence of Cyp33 RRM domain (Q9UNP9 1-90): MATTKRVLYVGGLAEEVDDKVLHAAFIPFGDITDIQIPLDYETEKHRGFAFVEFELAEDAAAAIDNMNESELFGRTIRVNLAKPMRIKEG

“Cyp33 RRM domain F49A mutant (from UniProt Q9UNP9 1-90) (domain or fragment)” showed a fold reduction of affinity against the wild type in series [1] of 35 fold.
“Cyp33 RRM domain L39A mutant (from UniProt Q9UNP9 1-90) (domain or fragment)”: in series [1], the fold reduction of affinity against the wild type came to 10 fold.
For the molecule “RRM domain of human Cyclophilin 33 (Cyp33), residues 1-90 (from UniProt Q9UNP9 1-90) (domain or fragment)”, in series [1], the dissociation constant (Kd) was 1.9 µM and the dH is -10 kcal.
Take AAUAAA (ssRNA) [AAUAAA RNA]: the Kd in the series with Cyp33 RRM domain was determined as 198 ± 11 µM.

One may read the Kd as the constant that tells how readily two partners part at equilibrium. A low value points to a tighter complex.
